In data set [1] the target is T1, bHLH25 (Oryza sativa (Nipponbare), UniProt Q5SMX4 1-439). Description: EMSA; 10 mM Tris-HCl pH 7.5, 50 mM KCl, 50 ng/mL poly(dI-dC), 1 mM DTT, ~0.5 ug GST protein in 10 uL, 0.5 uM pmiR397b-G-box or 0.1 uM pCPS2-N-box biotin probe; temperature not stated. As to conditions: protein: recombinant; tags: GST-SUMO (pGEX-6p-1-SUMO); chain copies: 2; label: 5' biotin.
The target of the next data set is bHLH25 M256V (Oryza sativa (Nipponbare), UniProt Q5SMX4 1-439, M256V). The description is as above. The note with it: protein: recombinant; tags: GST-SUMO; chain copies: 2; label: 5' biotin.
Sequence of bHLH25 M256V (Q5SMX4 entry or part of it M256V | M256V M256V): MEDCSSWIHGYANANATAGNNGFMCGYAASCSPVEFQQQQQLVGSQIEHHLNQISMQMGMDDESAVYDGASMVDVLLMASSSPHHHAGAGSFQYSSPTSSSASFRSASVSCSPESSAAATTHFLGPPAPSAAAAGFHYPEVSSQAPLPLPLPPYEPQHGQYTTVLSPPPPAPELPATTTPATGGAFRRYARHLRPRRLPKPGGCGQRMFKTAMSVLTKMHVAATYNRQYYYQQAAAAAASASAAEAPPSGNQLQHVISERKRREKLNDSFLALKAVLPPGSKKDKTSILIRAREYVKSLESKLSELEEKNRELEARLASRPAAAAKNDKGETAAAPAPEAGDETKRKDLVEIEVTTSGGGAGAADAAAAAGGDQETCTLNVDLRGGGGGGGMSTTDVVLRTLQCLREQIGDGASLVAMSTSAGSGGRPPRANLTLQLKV
Data set [2] concerns the target T1, bHLH25. Description: competition; unlabeled competitor of N1; 10 mM Tris-HCl pH 7.5, 50 mM KCl, 50 ng/mL poly(dI-dC), 1 mM DTT, ~0.5 ug GST protein in 10 uL, 0.5 uM pmiR397b-G-box or 0.1 uM pCPS2-N-box biotin probe; temperature not stated. The note with it: protein: recombinant; tags: GST-SUMO (pGEX-6p-1-SUMO); chain copies: 2.

T1 sequence (Q5SMX4 entry or part of it): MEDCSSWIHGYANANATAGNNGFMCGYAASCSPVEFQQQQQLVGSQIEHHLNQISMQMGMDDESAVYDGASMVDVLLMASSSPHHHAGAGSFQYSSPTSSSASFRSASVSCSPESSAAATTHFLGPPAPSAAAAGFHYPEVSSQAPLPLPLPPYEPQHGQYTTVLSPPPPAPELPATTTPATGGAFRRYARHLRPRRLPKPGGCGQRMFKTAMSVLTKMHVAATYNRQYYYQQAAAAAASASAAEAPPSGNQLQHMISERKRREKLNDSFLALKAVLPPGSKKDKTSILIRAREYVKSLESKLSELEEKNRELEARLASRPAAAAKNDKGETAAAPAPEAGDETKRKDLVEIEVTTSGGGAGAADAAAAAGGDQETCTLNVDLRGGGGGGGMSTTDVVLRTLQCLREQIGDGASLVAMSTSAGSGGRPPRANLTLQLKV

B1: bio-pCPS2-N-box (dsDNA)
DNA 1: TTTCACAATCACGAGCTAGACTAA
DNA 2: TTAGTCTAGCTCGTGATTGTGAAA
For B1, the binding result is given as “binds” with bHLH25 [1] and “no binding” with bHLH25 M256V.

B2: bio-pmiR397b-G-box (dsDNA)
DNA 1: GTACTTTGTCACGTCCTGATCGAT
DNA 2: ATCGATCAGGACGTGACAAAGTAC
Consider B2, for which the binding result in the data set with bHLH25 [1] is recorded as “binds”; with bHLH25 M256V, “no binding”.

B3: com-pmiR397b-G-box (dsDNA)
DNA 1: GTACTTTGTCACGTCCTGATCGAT
DNA 2: ATCGATCAGGACGTGACAAAGTAC
For the molecule B3, the binding result with bHLH25 [2] was “binds”.

The values above are taken from paper PMC11909244, “Rice transcription factor bHLH25 confers resistance to multiple diseases by sensing H2O2”.
